Data on two molecules can be found in patent publication US20220098315A1 (Novartis, published 2022).

Assay [1] has as its target recombinant human CD40 (human) (UniProt P25942). Put plainly: SPR (Biacore T100), antibody captured on Protein A, CD40 antigen as analyte, 25 C, 1:1 model. Background: Surface plasmon resonance follows binding to a sensor surface in real time, without labels.
The target of the next assay is human CD40 on cells (human, UniProt P25942 21-277). Put plainly: cell-based or functional assay.
Sequence of human CD40 on cells (P25942 21-277 limits assumed): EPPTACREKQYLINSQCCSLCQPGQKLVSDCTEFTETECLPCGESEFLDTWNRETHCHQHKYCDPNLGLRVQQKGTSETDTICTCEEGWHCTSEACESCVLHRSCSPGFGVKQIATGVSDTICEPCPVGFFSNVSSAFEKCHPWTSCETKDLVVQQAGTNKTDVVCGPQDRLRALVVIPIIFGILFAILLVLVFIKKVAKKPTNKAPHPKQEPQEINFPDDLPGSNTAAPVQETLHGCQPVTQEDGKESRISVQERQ

Sequence of recombinant human CD40 (human) (P25942 21-193 limits assumed): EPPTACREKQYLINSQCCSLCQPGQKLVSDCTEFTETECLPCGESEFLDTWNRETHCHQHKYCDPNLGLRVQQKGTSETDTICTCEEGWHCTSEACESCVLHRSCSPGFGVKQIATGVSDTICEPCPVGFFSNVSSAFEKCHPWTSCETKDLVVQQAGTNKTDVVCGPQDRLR

Usually Kd stands for a measure of binding affinity in units of concentration. One may read the koff as the first-order rate constant of dissociation. In general, kon refers to a measure of how fast the partners come together. Regarding HCD122 (antibody), in assay [1], the Kd turned out to be 0.467 nM, the koff is 0.000126 s⁻¹ and the kon stood at 284000 M⁻¹ s⁻¹.

B1: CFZ533 (antibody, human IgG1, kappa, N297A, V domains shown)
VH: QVQLVESGGGVVQPGRSLRLSCAASGFTFSSYGMHWVRQAPGKGLEWVAVISYEESNRYHADSVKGRFTISRDNSKITLYLQMNSLRTEDTAVYYCARDGGIAAPGPDYWGQGTLVTVSS
VL: DIVMTQSPLSLTVTPGEPASISCRSSQSLLYSNGYNYLDWYLQKPGQSPQVLISLGSNRASGVPDRFSGSGSGTDFTLKISRVEAEDVGVYYCMQARQTPFTFGPGTKVDIRR
As for B1, in the assay with human CD40 on cells, the “IC50, rCD154-induced proliferation of human PBMCs” value turned out to be 0.12 nM.
